In PMC7664906 (International Journal of Molecular Sciences, 2020):
Like-named read-outs stand apart in the source and are kept apart here. Where no end group is shown, it is not given here.

Columns and labels:
ECE-1 = ECE-1 (Homo sapiens, UniProt P42892)
[1] = target: SNAP-GLP-1R (pSNAP-GLP-1R) on HEK293-SNAP-GLP-1R cells (UniProt P43220); assay: FRET or BRET
[2] = 10 nmol peptide in 750 µl 0.2 M acetate buffer pH 5.5 (GLP-1 also at neutral pH), 0.25 µg recombinant ECE-1, 37 °C, up to 24 h, RP-HPLC C18, UV 214 nm, peak area with versus without enzyme, n = 2-3

SNAP-GLP-1R (pSNAP-GLP-1R) on HEK293-SNAP-GLP-1R cells, sequence (P43220 24-463): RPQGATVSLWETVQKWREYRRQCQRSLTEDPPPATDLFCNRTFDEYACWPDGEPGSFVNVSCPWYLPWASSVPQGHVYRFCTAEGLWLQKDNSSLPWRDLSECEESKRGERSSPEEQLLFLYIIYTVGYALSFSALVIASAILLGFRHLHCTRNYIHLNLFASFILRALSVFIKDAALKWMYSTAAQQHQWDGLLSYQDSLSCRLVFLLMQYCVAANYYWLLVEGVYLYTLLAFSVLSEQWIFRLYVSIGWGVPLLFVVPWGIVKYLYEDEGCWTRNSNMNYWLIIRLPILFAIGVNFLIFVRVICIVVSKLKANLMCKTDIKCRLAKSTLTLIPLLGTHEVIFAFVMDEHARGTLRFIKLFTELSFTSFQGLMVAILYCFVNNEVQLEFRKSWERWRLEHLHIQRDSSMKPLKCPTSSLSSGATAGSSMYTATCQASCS
ECE-1, sequence (P42892 whole entry, species assumed): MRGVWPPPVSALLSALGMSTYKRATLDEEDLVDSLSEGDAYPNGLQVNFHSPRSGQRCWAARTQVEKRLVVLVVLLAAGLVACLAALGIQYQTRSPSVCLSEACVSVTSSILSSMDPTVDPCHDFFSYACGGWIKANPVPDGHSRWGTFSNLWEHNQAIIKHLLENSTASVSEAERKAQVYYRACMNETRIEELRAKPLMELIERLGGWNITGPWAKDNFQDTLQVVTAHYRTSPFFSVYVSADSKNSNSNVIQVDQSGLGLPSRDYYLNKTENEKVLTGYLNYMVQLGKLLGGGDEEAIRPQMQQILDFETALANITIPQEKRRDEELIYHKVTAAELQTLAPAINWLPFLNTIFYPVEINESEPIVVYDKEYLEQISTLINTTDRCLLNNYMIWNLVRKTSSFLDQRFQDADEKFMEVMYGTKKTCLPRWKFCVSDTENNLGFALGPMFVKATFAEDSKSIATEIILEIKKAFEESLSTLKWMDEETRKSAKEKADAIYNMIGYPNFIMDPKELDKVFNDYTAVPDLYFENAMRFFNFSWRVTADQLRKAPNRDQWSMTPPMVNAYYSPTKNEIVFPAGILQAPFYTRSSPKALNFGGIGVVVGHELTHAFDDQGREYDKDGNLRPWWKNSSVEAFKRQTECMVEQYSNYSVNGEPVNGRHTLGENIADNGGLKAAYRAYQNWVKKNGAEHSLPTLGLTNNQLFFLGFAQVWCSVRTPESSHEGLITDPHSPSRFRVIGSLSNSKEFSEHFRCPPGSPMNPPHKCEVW

Molecule | Log Ki [1] | other results
CC[C@H](C)[C@H](NC(=O)[C@H](Cc1ccccc1)NC(=O)[C@H](CC(C)C)NC(=O)[C@H](CCCNC(=N)N)NC(=O)[C@@H](NC(=O)[C@H](C)NC(=O)[C@H](CCC(=O)O)NC(=O)[C@H](CCC(=O)O)NC(=O)[C@H](CCC(=O)O)NC(=O)[C@H](CC(C)C)NC(=O)[C@H](Cc1ccc(O)cc1)NC(=O)[C@H](CO)NC(=O)[C@H](CO)NC(=O)[C@@H](NC(=O)[C@H](CC(=O)O)NC(=O)[C@H](CO)NC(=O)[C@@H](NC(=O)[C@H](Cc1ccccc1)NC(=O)[C@@H](NC(=O)CNC(=O)[C@H](CCC(=O)O)NC(=O)[C@H](C)NC(=O)[C@@H](N)Cc1c[nH]cn1)[C@@H](C)O)[C@@H](C)O)C(C)C)C(C)C)C(=O)N[C@@H](CCC(=O)O)C(=O)N[C@@H](Cc1c[nH]c2ccccc12)C(=O)N[C@@H](CC(C)C)C(=O)N[C@@H](CCCCN)C(=O)N[C@@H](CC(N)=O)C(=O)NCC(=O)NCC(=O)N1CCC[C@H]1C(=O)N[C@@H](CO)C(=O)N[C@@H](CO)C(=O)NCC(=O)N[C@@H](C)C(=O)N1CCC[C@H]1C(=O)N1CCC[C@H]1C(=O)N1CCC[C@H]1C(=O)N[C@@H](CO)C(N)=O [Chi3] |  | In vitro peptide degradation by / resistance to ECE-1 (in words) (ECE-1; [2]): most ECE-1-resistant
CC[C@H](C)[C@H](NC(=O)[C@H](Cc1ccccc1)NC(=O)[C@H](CCC(=O)O)NC(=O)[C@H](CCCCN)NC(=O)[C@H](C)NC(=O)[C@H](C)NC(=O)[C@H](CCC(N)=O)NC(=O)CNC(=O)[C@H](CCC(=O)O)NC(=O)[C@H](CC(C)C)NC(=O)[C@H](Cc1ccc(O)cc1)NC(=O)[C@H](CO)NC(=O)[C@H](CO)NC(=O)[C@@H](NC(=O)[C@H](CC(=O)O)NC(=O)[C@H](CO)NC(=O)[C@@H](NC(=O)[C@H](Cc1ccccc1)NC(=O)[C@@H](NC(=O)CNC(=O)[C@H](CCC(=O)O)NC(=O)CNC(=O)[C@@H](N)Cc1cnc[nH]1)[C@@H](C)O)[C@@H](C)O)C(C)C)C(=O)N[C@@H](C)C(=O)N[C@@H](Cc1c[nH]c2ccccc12)C(=O)N[C@@H](CC(C)C)C(=O)N[C@H](C(=O)N[C@@H](CCCCN)C(=O)NCC(=O)N[C@@H](CCCNC(=N)N)C(N)=O)C(C)C [GLP-1-G2] |  | In vitro peptide degradation by / resistance to ECE-1 (in words) (ECE-1; pH 5.5): ECE-1-sensitive
Chi1 (GLP-1 with the exendin-4 Trp-cage added to its C-terminus) (peptide) | -8.2 Log (M) | 
Chi1, N-terminus D3 (asp3 derivative) (peptide) | -8.5 Log (M) | 
Chi1, N-terminus F1 (phe1 derivative) (peptide) | -6.4 Log (M) | 
HAEGTFTSDVSSYLEGQAAKEFIEWLKNGGPSSGAPPPS-NH2 [Chi2] |  | In vitro peptide degradation by / resistance to ECE-1 (in words) (ECE-1; [2]): most ECE-1-resistant
exendin-4 (from UniProt P26349 48-87) (peptide) | -9.5 Log (M) | 
exendin-4(1-30) (peptide) | -9 Log (M) | 
exendin-4(1-30), N-terminus D3 (asp3 derivative) (peptide) | -9.2 Log (M) | 
exendin-4(1-30), N-terminus F1 (phe1 derivative) (peptide) | -7.5 Log (M) | 
exendin-4, N-terminus D3 (asp3 derivative) (peptide) | -9.2 Log (M) | 
exendin-phe1 (peptide) | -7.3 Log (M) | 
